Source: patent publication US20210228853A1, “DRUG DELIVERY METHODS TARGETING THE LYMPHATIC SYSTEM” (Sorrento Therapeutics, Inc., priority 2018, published 2021)

Assays:
[1] = tested on: Collagen Induced Arthritic (CIA) Model for Rheumatoid Arthritis (RA); assay: Collagen induced arthritic (CIA) model for rheumatoid arthritis, hind limb/joint swelling; format: in vivo, rat
Experimental: (§1) Specifically, type II porcine collagen (Chondrex, Inc. catalog #20031), solubilized in 0.05 N of acetic acid in sterile water at a concentration of 2 mg/mL was emulsified with an equal volume of incomplete Freud's adjuvant (Chondrex, Inc. catalog #7002) using homogenization at 35,000 rpm (Omni International homogenizer TH, homogenizer probe #32750); 100 μL emulsion was injected subcutaneously at the base of the tails on both sides for initial administration (day 0, 200 μL of emulsion total), and then again, 7 days later, on the right side only, for booster administration (day 7, 100 μL of emulsion total). Hind limb swelling, usually evident by day 14, was assessed by caliper measurements of the rear ankle cross (side-to-side) and oblique (front-to-back) dimensions. The two measurements for each hind limb were multiplied together for assessment of swelling, and the percent change from baseline was computed. These measurements and lymphatic imaging were performed on days 0, 7, 11, 13, and 18, in the early stages of CIA before the onset of joint destruction. Four groups of animals were studied: (1) untreated (n=20), (2) treated with etanercept given by SC administration (n=20, 1 mg in 100 μL), (3) treated with etanercept given by ID administration (n=20, two administrations of 0.5 mg in 50 μL), and (4) treated with etanercept given via Sofusa™ (n=18, one administration of 1 mg in 100 μL delivered).

[2] = Biodistribution of radiolabeled etanercept to axillary and inguinal lymph nodes; format: in vivo; conditions: rat; Sofusa vs intravenous or subcutaneous; 12 and 36 hours; 1 mg
Experimental: In order to determine the amount etanercept delivered to the lymph nodes, a radiolabeled etanercept solution was administrated using the Sofusa™ drug delivery platform (1 mg etanercept in 100 μL), IV (1 mg etanercept in the tail vein in 100 μL), SC (1 mg etanercept in the dorsolateral side at the same site as the Sofusa™ application, 100 μL), and ID (1 mg total etanercept in two 50 μL injections). Animals were harvested at 12 and 36 hrs after administration, and the left/right axillary and inguinal lymph nodes were collected, weighed, and counted for radioactivity using a 2480 Wizard2 automatic gamma counter (PerkinElmer, Waltham, Mass., USA). The time-corrected radioactivity was then used to compute the μg/mL of tissue etanercept concentration from the specific radioactivity of the dosing solution with animals that were euthanized at 12 hrs (n=4, Sofusa™; n=6, IV; n=6, ID; and n=6, SC) and at 36 hrs (n=6, Sofusa™; n=6, IV; n=6, ID; and n=6, SC).
In order to validate the amount of etanercept delivered, the radioactivity was measured in the Sofusa™ device and tubing before and after the 1 hr infusion. Measurement was conducted using the dose calibrator. The amount of etanercept delivered as the difference in the time-corrected radioactivity before and after administration was determined.

[3] = tested on: Collagen Induced Arthritic (CIA) Model for Rheumatoid Arthritis (RA); assay: Lymphatic pumping rate by NIRF imaging in CIA rats; format: in vivo, rat; conditions: for lymphatic pumping in the hind limbs vs untreated animals: CIA rat, days 13 and 18 post CIA induction
Experimental: as §1, with “delivered). Rats were anesthetized with isoflurane and shaved before imaging; 10 μL of 625 μM ICG was then injected ID with a 31-gauge needle/syringe (BD #328438, Fisher Scientific) at the base of the tail and on the dorsal side of the paw on both the right and left sides of the rats to perform NIRF imaging of the lymphatics. […] The integration time for fluorescence images was 200 ms; 300-900 images were collected per lateral side per rat for lymph propulsive frequency measurements. […]” for “delivered).”

[4] = Etanercept pharmacokinetics in rat serum by route of administration (ELISA); format: in vivo, Sprague Dawley rats
Experimental: Methods and procedures for some of these experiments have been adapted from Aldrich, et al., Arthritis Res. Ther., (2017), 19:116 (DOI 10.1186/s13075-017-1323-z; Open Access) which is incorporated by reference herein in its entirety for all purposes.
In order to characterize differences in etanercept delivery by the different routes of administration, normal rats were used to determine the PK profiles following a single dose of 1 mg etanercept in 100 μL delivered via Sofusa™ (n=6), conventional IV (in the tail vein, n=6), SC (dorsolateral injection at the same site as the Sofusa™ application, n=4), or ID injections (symmetrical dorsolateral injections 2×50 uL for a total dose of 1 mg etanercept, n=6). Other than the Sofusa™ delivery, all administration was conducted using a 31-gauge needle. At 2, 4, 8, 12, 24, and 36 h after administration, animals were anesthetized under isoflurane, and 200 μL of blood was drawn from the jugular vein. The etanercept concentration in serum was quantified using the Etanercept ELISA Kit (ABIN: 1540251) (Matriks Biotechnology Co., LTD., Ankara, Turkey). Optical density was measured at 450 nm using Thermo Scientific Multiskan EX (Thermo Fisher Scientific, Waltham, Mass., USA).

[5] = Etanercept pharmacokinetics in porcine model by route of administration; format: in vivo, Yorkshire pig
[6] = Sofusa drug delivery platform vs subcutaneous
[7] = Table 1, IV, 1 mg etanercept single dose
[8] = Table 1, SC, 1 mg etanercept single dose
[9] = Table 2 summary, Sofusa drug delivery platform

etanercept
joint swelling over time ([1]; CIA RA rat model, Sofusa administration, 1 mg): decreased joint swelling over time | increase in swelling with progression of disease (paired group comparisons, ANOVA) ([1]; CIA rat, ID administration): swelling was significantly increased | increase in swelling with progression of disease (paired group comparisons, ANOVA) ([1]; CIA rat, SC administration): swelling was significantly increased | increase in swelling with progression of disease (paired group comparisons, ANOVA) ([1]; CIA rat, SOFUSA administration): no statistically significant increase in swelling | swelling of the hind limbs vs untreated animals ([1]; CIA rat, all treated groups (SC, ID, Sofusa), days 13 and 18): significant reduction in swelling | hind limb swelling, SOFUSA compared to SC-treated animals ([1]; CIA rat, days 13 and 18): significantly reduced hind limb swelling | active agent in the axillary and inguinal lymph nodes [2]: significantly more of the active agent | lymphatic pumping rate ([3]; CIA RA rat, Sofusa compared to untreated, ID and SC groups): significantly increased | lymphatic pumping in the hind limbs vs untreated animals ([3]; SC administration): statistically significant greater lymphatic pumping | lymphatic pumping in the hind limbs vs untreated animals ([3]; SOFUSA administration): statistically significant greater lymphatic pumping | AUC48, Sofusa compared to SC [4, 6]: almost double | Tmax, Sofusa compared to SC [4, 6]: significantly shorter | AUC0-48 [4, 7]: 2,800 hrs-μg/mL | BA [4, 7]: 100% | Cmax [4, 7]: 120000 ng/mL | Tmax [4, 7]: 8 h | AUC0-48 [4, 8]: 302 hrs-μg/mL | BA [4, 8]: 10% | Cmax [4, 8]: 15000 ng/mL | Tmax [4, 8]: 36 h | AUC0-48 ([4]; Table 1, Sofusa Study 1): 545 hrs-μg/mL | BA ([4]; Table 1, Sofusa Study 1): 20% | Cmax ([4]; Table 1, Sofusa Study 1): 25000 ng/mL | Tmax ([4]; Table 1, Sofusa Study 1): 4 h | AUC0-48 ([4]; Table 1, Sofusa Study 2): 502 hrs-μg/mL | BA ([4]; Table 1, Sofusa Study 2): 18% | Cmax ([4]; Table 1, Sofusa Study 2): 22000 ng/mL | Tmax ([4]; Table 1, Sofusa Study 2): 2 h | AUC0-48 ([4]; Table 1, Sofusa Study 3): 538 hrs-μg/mL | BA ([4]; Table 1, Sofusa Study 3): 19% | Cmax ([4]; Table 1, Sofusa Study 3): 20000 ng/mL | Tmax ([4]; Table 1, Sofusa Study 3): 2 h | AUC0-48 ([4]; Table 2 summary, SC): 492 hrs-μg/mL | BA ([4]; Table 2 summary, SC): 17% | Cmax ([4]; Table 2 summary, SC): 15000 ng/mL | Tmax ([4]; Table 2 summary, SC): 36 h | AUC0-48 [4, 9]: 800 hrs-μg/mL | BA [4, 9]: 29% | Cmax [4, 9]: 19000 ng/mL | Tmax [4, 9]: 10 h | AUC0-36 ([4]; Table 3, Intradermal): 696 µg·h/mL | BA ([4]; Table 3, Intradermal): 25% | Cmax ([4]; Table 3, Intradermal): 21000 ng/mL | Tmax ([4]; Table 3, Intradermal): 12 h | AUC0-36 ([4]; Table 3, Intravenous): 2,815 μg-hour/ml | BA ([4]; Table 3, Intravenous): 100% | Cmax ([4]; Table 3, Intravenous): 120000 ng/mL | Tmax ([4]; Table 3, Intravenous): 2 h | AUC0-36 ([4]; Table 3, Sofusa): 1010 µg·h/mL | BA ([4]; Table 3, Sofusa): 36% | Cmax ([4]; Table 3, Sofusa): 23000 ng/mL | Tmax ([4]; Table 3, Sofusa): 12 h | AUC0-36 ([4]; Table 3, Subcutaneous): 302 µg·h/mL | BA ([4]; Table 3, Subcutaneous): 11% | Cmax ([4]; Table 3, Subcutaneous): 15000 ng/mL | Tmax ([4]; Table 3, Subcutaneous): 36 h | AUC48 and bioavailability, Sofusa vs intravenous [5]: comparable to that for intravenous administration | AUC48 and bioavailability, Sofusa vs subcutaneous [5]: significantly higher than that for subcutaneous delivery | serum concentration ([5]; Sofusa at a dose much lower than subcutaneous administration): maintained a serum concentration at a therapeutically effective concentration | AUC0-48 ([5]; Table 4, IV): 143 hrs-μg/mL | BA ([5]; Table 4, IV): 100% | Cmax ([5]; Table 4, IV): 6000 ng/mL | Tmax ([5]; Table 4, IV): 2 h | AUC0-48 ([5]; Table 4, SC): 89 hrs-μg/mL | BA ([5]; Table 4, SC): 62% | Cmax ([5]; Table 4, SC): 2000 ng/mL | Tmax ([5]; Table 4, SC): 24 h | AUC0-48 ([5]; Table 4, Sofusa): 132 hrs-μg/mL | BA ([5]; Table 4, Sofusa): 93% | Cmax ([5]; Table 4, Sofusa): 4400 ng/mL | Tmax ([5]; Table 4, Sofusa): 24 h
